Assay results taken from patent US20260226154A1 (CEPHALON, published 2026).

Experiments:
PACAP38 [1] = target: T1, PACAP38 (human, not fully specified); experiment: cell-based or functional assay
T1 peptide: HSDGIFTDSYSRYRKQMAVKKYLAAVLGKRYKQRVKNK

PACAP38 [2] = target: T1, PACAP38; experiment: cell-based or functional assay
PACAP38 [3] = target: T1, PACAP38; experiment: SPR (Biacore), 37 C, antibody captured via anti-human Fc, peptide analyte
Experimental: (§1) In brief, antibody and peptide interaction was determined on a Biacore S200 (GE Healthcare) by method previously described (Andreu and Gomes 2002). An anti-Human IgG Fc capture antibody was immobilized on a CM5 biosensor chip via standard amine coupling. Anti-PACAP antibodies were injected and captured to 200 to 400 response units (RU),). PACAP38, PACAP27 and VIP were diluted in HBS-EP+ buffer containing 0.1% w/v BSA (Bovostar, catalog number BSAS1.0) and 0.15 M NaCl (Sigma-Aldrich catalog number S7653), pH 7.4. Binding kinetics of antibodies were determined by injection of two-fold serial dilutions of PACAPs (12 nm to 0 nM) and VIP (1200 nM to 0 nM) in running buffer at 37° C. with a flow rate of 40 μL/min for 2 min followed by a dissociation for 10 minutes. For subsequent cycles, the chip was regenerated using 0.85% phosphoric acid. Data was analysed with the Biacore S200 Evaluation Software (ver 1.0). Association rate (kₐ) and dissociation rate (kd) constants were determined using a simple one-to-one Langmuir binding model and used to calculate the equilibrium dissociation constant (KD).

PACAP38 [4] = target: T1, PACAP38; experiment: SPR (Biacore S200) off-rate ranking, antibody captured from supernatant, single injection of 33.3 nM PACAP38
Experimental: as §1, with “Binding kinetics of antibodies were determined by injection of two-fold serial dilutions of PACAPs (12 nm to 0 nM) and VIP (1200 nM to 0 nM) in running buffer at 37° C. with a flow rate of 40 μL/min for 2 min followed by a dissociation for 10 minutes.” left out

PACAP27 = target: T2, PACAP27 (human, not fully specified); experiment: SPR (Biacore S200), 37 C, captured antibody, peptide dilution series, 1:1 Langmuir fit
T2 peptide: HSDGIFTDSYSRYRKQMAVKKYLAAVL
Experimental: as §1
(§2) Due to very fast on-rate and off-rate with VIP, binding affinity at steady state was used.

PACAP38 [5] = target: T1, PACAP38; experiment: as above
Experimental: as §1, §2

VIP = target: T3, VIP (human); experiment: SPR (Biacore S200), 37 C, captured antibody, steady state affinity
T3 construct: also called vasoactive intestinal peptide
T3 peptide: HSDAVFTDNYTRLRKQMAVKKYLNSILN
Experimental: as §1, §2

B1: 917B (antibody, V domains shown)
VH: EVQLVQSGAEVKKPGSSVKVSCKASGGTFSDSYMHWVRQAPGQGLEWMGLIYPIFADTRYAQKFQGRVTITADESTSTAYMELSSLRSEDTAVYYCAIDQDGSFAYWGQGTLVTVSS
VL: DIVMTQSPDSLAVSLGERATINCKSSQSLLDSDGKTYLNWLQQKPGQPPKRLIYLVSTRESGVPDRFSGSGSGTDFTLTISSLQAEDVAVYYCWQGTWFDLTFGGGTKVEIK
notes: Humanized anti-PACAP variant
Question: Which “PACAP-38 IC50” value (PACAP38 [1]) does the source give for B1 here?
Answer: 0.19 nM

Question: What about the “IC50 (nM), PACAP-induced cAMP accumulation, CHO-K1 cells, cAMP-Glo” value (from here on “IC50 (nM)”) (PACAP38 [2]) of the same binder?
Answer: 0.19 nM

Question: What about the Kd (PACAP38 [3]) of the same binder?
Answer: 0.00969 nM

Question: What about the koff (PACAP38 [3]) of the same binder?
Answer: 0.000122 s⁻¹

Question: And the kon (PACAP38 [3])?
Answer: 1.26e+07 M⁻¹ s⁻¹

B2: 524C (antibody, V domains shown)
VH: EVQLVQSGAEVKKPGSSVKVSCKASGGTFSDSYMHWVRQAPGQGLEWMGLIYPIFADQRYAQKFQGRVTITADESTSTAYMELSSLRSEDTAVYYCAIDQDASFAYWGQGTLVTVSS
VL: DIVMTQSPDSLAVSLGERATINCKSSQSLLDSDGKTYLNWLQQKPGQPPKRLIYLVSTRESGVPDRFSGSGSGTDFTLTISSLQAEDVAVYYCWQGTWFDLTFGGGTKVEIK
notes: LC S(27E), G29, L50, V51, K53T, L54R, D55E, H93W, P95D
Question: How did the “PACAP-38 IC50” value (PACAP38 [1]) turn out when B2 was run?
Answer: 0.36 nM

Question: What about the Kd (PACAP38 [3]) of the same binder?
Answer: 0.035 nM

Question: What about the koff (PACAP38 [3]) of the same binder?
Answer: 0.000546 s⁻¹

Question: And the kon (PACAP38 [3])?
Answer: 1.56e+07 M⁻¹ s⁻¹

B3: 604C (antibody, V domains shown)
VH: EVQLVQSGAEVKKPGSSVKVSCKASGGTFSDSYMHWVRQAPGQGLEWMGLIYPIFADTRYAQKFQGRVTITADESTSTAYMELSSLRSEDTAVYYCAIDQDGSFAYWGQGTLVTVSS
VL: DIVMTQSPDSLAVSLGERATINCKSSQSLLDSDGKTYLNWLQQKPGQPPKRLIYWASTRESGVPDRFSGSGSGTDFTLTISSLQAEDVAVYYCWQGTWFDLTFGGGTKVEIK
Question: With B3 as the binder, how does the Kd (PACAP38 [4]) read?
Answer: 0.0197 nM

Question: What about the koff (PACAP38 [4]) of the same binder?
Answer: 0.000319 s⁻¹

Question: And the kon (PACAP38 [4])?
Answer: 1.62e+07 M⁻¹ s⁻¹

Question: And the “PACAP-38 IC50” value (PACAP38 [1])?
Answer: 0.16 nM

Question: What about the Kd (PACAP38 [3]) of the same binder?
Answer: 0.0197 nM

Question: What about the koff (PACAP38 [3]) of the same binder?
Answer: 0.000319 s⁻¹

Question: And the kon (PACAP38 [3])?
Answer: 1.62e+07 M⁻¹ s⁻¹

B4: 608C (antibody, V domains shown)
VH: EVQLVQSGAEVKKPGSSVKVSCKASGGTFSDLYMHWVRQAPGQGLEWMGLIYPIFADTRYAQKFQGRVTITADESTSTAYMELSSLRSEDTAVYYCAIDQDGSFAYWGQGTLVTVSS
VL: DIVMTQSPDSLAVSLGERATINCKSSQSLLDSDGKTYLNWLQQKPGQPPKRLIYWASTRESGVPDRFSGSGSGTDFTLTISSLQAEDVAVYYCWQGTWFDLTFGGGTKVEIKR
Question: How did the Kd (PACAP38 [4]) turn out when B4 was run?
Answer: 0.0284 nM

Question: What about the koff (PACAP38 [4]) of the same binder?
Answer: 0.00204 s⁻¹

Question: What about the kon (PACAP38 [4]) of the same binder?
Answer: 7.19e+07 M⁻¹ s⁻¹

Question: What about the “PACAP-38 IC50” value (PACAP38 [1]) of the same binder?
Answer: 0.7 nM

Question: What about the “IC50 (nM)” value (PACAP38 [2]) of the same binder?
Answer: 0.7 nM

Question: What about the Kd (PACAP38 [3]) of the same binder?
Answer: 0.0284 nM

Question: And the koff (PACAP38 [3])?
Answer: 0.00204 s⁻¹

Question: And the kon (PACAP38 [3])?
Answer: 7.19e+07 M⁻¹ s⁻¹

B5: 605C (antibody, V domains shown)
VH: EVQLVQSGAEVKKPGSSVKVSCKASGGTFSDSYMHWVRQAPGQGLEWMGLIYPIFADTRYAQKFQGRVTITADESTSTAYMELSSLRSEDTAVYYCAIDQDGSFAYWGQGTLVTVSS
VL: DIVMTQSPDSLAVSLGERATINCKSSQSLLDADGKTYLNWLQQKPGQPPKRLIYWASTRESGVPDRFSGSGSGTDFTLTISSLQAEDVAVYYCWQGTWFDLTFGGGTKVEIK
Question: What does the source list for B5?
Answer: Kd (PACAP27): 0.154 nM; koff (PACAP27): 0.00101 s⁻¹; kon (PACAP27): 6.58e+06 M⁻¹ s⁻¹; Kd (PACAP38 [5]): 0.0328 nM; koff (PACAP38 [5]): 0.000565 s⁻¹; kon (PACAP38 [5]): 1.72e+07 M⁻¹ s⁻¹; Kd (PACAP38 [4]): 0.017 nM; koff (PACAP38 [4]): 0.000566 s⁻¹; kon (PACAP38 [4]): 3.33e+07 M⁻¹ s⁻¹; PACAP-38 IC50 (PACAP38 [1]): 0.15 nM; Kd (VIP): 225 nM; Kd (PACAP38 [3]): 0.017 nM; koff (PACAP38 [3]): 0.000566 s⁻¹; kon (PACAP38 [3]): 3.33e+07 M⁻¹ s⁻¹

B6: 609C (antibody, V domains shown)
VH: EVQLVQSGAEVKKPGSSVKVSCKASGGTFSDLYMHWVRQAPGQGLEWMGLIYPIFADTRYAQKFQGRVTITADESTSTAYMELSSLRSEDTAVYYCAIDQDGSFAYWGQGTLVTVSS
VL: DIVMTQSPDSLAVSLGERATINCKSSQSLLDADGKTYLNWLQQKPGQPPKRLIYWASTRESGVPDRFSGSGSGTDFTLTISSLQAEDVAVYYCWQGTWFDLTFGGGTKVEIKR
Question: With B6 as the binder, how does the Kd (PACAP38 [4]) read?
Answer: 0.0228 nM

Question: What about the koff (PACAP38 [4]) of the same binder?
Answer: 0.00118 s⁻¹

Question: And the kon (PACAP38 [4])?
Answer: 5.17e+07 M⁻¹ s⁻¹

Question: What about the “PACAP-38 IC50” value (PACAP38 [1]) of the same binder?
Answer: 0.83 nM

Question: What about the “IC50 (nM)” value (PACAP38 [2]) of the same binder?
Answer: 0.83 nM

Question: And the Kd (PACAP38 [3])?
Answer: 0.0228 nM

Question: What about the koff (PACAP38 [3]) of the same binder?
Answer: 0.00118 s⁻¹

Question: What about the kon (PACAP38 [3]) of the same binder?
Answer: 5.17e+07 M⁻¹ s⁻¹

B7: 919A (antibody, V domains shown)
VH: EVQLVQSGAEVKKPGSSVKVSCKASGGTFSDSYMHWVRQAPGQGLEWMGLIYPIFADTRYAQKFQGRVTITADESTSTAYMELSSLRSEDTAVYYCAIDYDGSFAYWGQGTLVTVSS
VL: DIVMTQSPDSLAVSLGERATINCKSSQSLLDSDGKTYLNWLQQKPGQPPKRLIYLVSTRESGVPDRFSGSGSGTDFTLTISSLQAEDVAVYYCWQGTHFPLTFGGGTKVEIK
notes: Humanized anti-PACAP variant
Question: Which “PACAP-38 IC50” value (PACAP38 [1]) does the source give for B7 here?
Answer: 1.3 nM

Question: What about the Kd (PACAP38 [3]) of the same binder?
Answer: 0.0866 nM

Question: And the koff (PACAP38 [3])?
Answer: 0.00584 s⁻¹

Question: What about the kon (PACAP38 [3]) of the same binder?
Answer: 6.75e+07 M⁻¹ s⁻¹

B8: 519C (antibody, V domains shown)
VH: EVQLVQSGAEVKKPGSSVKVSCKASGGTFSDLYMHWVRQAPGQGLEWMGLIYPIFADTRYAQKFQGRVTITADESTSTAYMELSSLRSEDTAVYYCAIDQDGSFAYWGQGTLVTVSS
VL: DIVMTQSPDSLAVSLGERATINCKSSQSLLDSDGKTYLNWLQQKPGQPPKRLIYLVSTRESGVPDRFSGSGSGTDFTLTISSLQAEDVAVYYCWQGTWFDLTFGGGTKVEIK
notes: as for B2
Question: Which “PACAP-38 IC50” value (PACAP38 [1]) does the source give for B8 here?
Answer: 0.27 nM

Question: And the Kd (PACAP38 [3])?
Answer: 0.0218 nM

Question: And the koff (PACAP38 [3])?
Answer: 0.000483 s⁻¹

Question: And the kon (PACAP38 [3])?
Answer: 2.22e+07 M⁻¹ s⁻¹

B9: 627C (antibody, V domains shown)
VH: EVQLVQSGAEVKKPGSSVKVSCKASGGTFSDVYMHWVRQAPGQGLEWMGLIYPIFADTRYAQKFQGRVTITADESTSTAYMELSSLRSEDTAVYYCAIDQDGSFAYWGQGTLVTVSS
VL: DIVMTQSPDSLAVSLGERATINCKSSQSLLDSDGKTYLNWLQQKPGQPPKRLIYWASTRESGVPDRFSGSGSGTDFTLTISSLQAEDVAVYYCWQGTWFDLTFGGGTKVEIKR
Question: Which Kd (PACAP38 [4]) does the source give for B9 here?
Answer: 0.0376 nM

Question: And the koff (PACAP38 [4])?
Answer: 0.000789 s⁻¹

Question: What about the kon (PACAP38 [4]) of the same binder?
Answer: 2.1e+07 M⁻¹ s⁻¹

Question: And the “PACAP-38 IC50” value (PACAP38 [1])?
Answer: 0.4 nM

Question: What about the “IC50 (nM)” value (PACAP38 [2]) of the same binder?
Answer: 0.4 nM

Question: What about the Kd (PACAP38 [3]) of the same binder?
Answer: 0.0376 nM

Question: What about the koff (PACAP38 [3]) of the same binder?
Answer: 0.000789 s⁻¹

Question: What about the kon (PACAP38 [3]) of the same binder?
Answer: 2.1e+07 M⁻¹ s⁻¹
